The target of assay [1] is RsAGDP1 AGD12 (residues 26–180) (Raphanus sativus). The experiment in a line: ITC; Microcal PEAQ-ITC, 25 °C; protein at 0.1 mM, peptide at 1.0–1.5 mM in the same buffer; fit with Origin 7.0. For orientation: ITC needs no label: the signal is the heat of the interaction.
The target in assay [2] is full-length AtAGDP1 (Arabidopsis thaliana) (UniProt Q500V5). The description is as above.

A word on the stoichiometry N: it is a count of units in the complex or per binding partner.

full-length AtAGDP1 (Arabidopsis thaliana), sequence (Q500V5 whole entry): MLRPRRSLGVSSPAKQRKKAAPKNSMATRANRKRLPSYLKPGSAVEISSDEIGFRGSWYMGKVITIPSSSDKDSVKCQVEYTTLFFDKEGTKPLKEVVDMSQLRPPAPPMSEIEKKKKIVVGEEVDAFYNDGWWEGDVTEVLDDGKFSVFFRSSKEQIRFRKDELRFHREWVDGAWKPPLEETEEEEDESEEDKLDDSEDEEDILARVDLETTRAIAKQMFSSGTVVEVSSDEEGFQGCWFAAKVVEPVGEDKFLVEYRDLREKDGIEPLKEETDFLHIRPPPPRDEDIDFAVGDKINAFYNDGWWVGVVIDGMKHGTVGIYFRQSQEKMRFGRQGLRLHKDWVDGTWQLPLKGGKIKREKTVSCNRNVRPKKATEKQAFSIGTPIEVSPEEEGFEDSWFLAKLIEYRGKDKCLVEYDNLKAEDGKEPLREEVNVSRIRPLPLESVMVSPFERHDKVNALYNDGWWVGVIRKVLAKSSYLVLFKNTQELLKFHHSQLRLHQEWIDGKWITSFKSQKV

H3K4me3K9me2 peptide gave a fold decrease of binding against H3K9me2 in assay [1] of 5 fold.

For the substance H3K9me2 peptide (ITC), in assay [2], the stoichiometry N stood at 3.

(Values after PMC6208443, “Arabidopsis AGDP1 links H3K9me2 to DNA methylation in heterochromatin” (Nature Communications, 2018).)
